Assay [1] has as its target T1, adenosine A2A receptor (Homo sapiens (Human), UniProt P29274 1-412).
T1 construct: also called ADORA2; HEK293-A2a cells
Kind of assay: flow cytometry titration 0.05-100 nM IgG; grey series read as HEK293-A2a cells. The procedure: Flow cytometry data showing binding to HEK293-A2a cells using immunoglobulins from variant libraries were generated using 100 nM IgG and compared to detected binding in parent cells. […] Selected variants were assessed for binding at concentrations titrated from 100 nM. […] Binding curves are plotted with IgG concentration vs. MFI (mean fluorescence intensity). […] Selected variants were assessed for binding at concentrations titrated from 100 nM. […] Binding curves are plotted with IgG concentration vs. MFI (mean fluorescence intensity).

For assay [2], the target named is T1, adenosine A2A receptor. As to the kind of experiment: flow cytometry cell-binding titration 0.05-100 nM IgG. In general terms: Flow cytometry measures light scatter and fluorescence of single cells or particles in a stream.
Assay [3] deals with T1, adenosine A2A receptor. Kind of assay: flow cytometry cell-binding titration 0.05-100 nM IgG; panel title 'Immune Library to A2a protein + ZM241385' (panning group).
For assay [4], the target named is T1, adenosine A2A receptor. Kind of assay: cell-based or functional assay.
For assay [5], the target named is T1, adenosine A2A receptor. Kind of assay: flow cytometry cell-binding titration 0.05-100 nM IgG; panel title 'Synthetic Library to A2a protein' (panning group).

Residue numbers refer to the chain shown, from its start. Names may count otherwise.

T1 sequence (P29274 whole entry): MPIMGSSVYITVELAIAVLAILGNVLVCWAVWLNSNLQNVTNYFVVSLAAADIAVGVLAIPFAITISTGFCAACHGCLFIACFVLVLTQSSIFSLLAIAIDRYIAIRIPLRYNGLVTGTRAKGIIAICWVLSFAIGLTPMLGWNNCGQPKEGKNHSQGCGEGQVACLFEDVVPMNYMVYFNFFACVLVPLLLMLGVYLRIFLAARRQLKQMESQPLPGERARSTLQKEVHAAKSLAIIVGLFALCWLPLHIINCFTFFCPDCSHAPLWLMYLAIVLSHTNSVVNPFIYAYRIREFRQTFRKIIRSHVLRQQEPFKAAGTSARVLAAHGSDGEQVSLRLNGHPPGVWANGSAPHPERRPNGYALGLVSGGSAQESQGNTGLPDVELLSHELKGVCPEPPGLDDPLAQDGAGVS

B1: A2A-9 (antibody, V domains shown)
VH: EVQLQQSGPGLVKPSQSLSLTCSVTGYSITSGYYWNWIRQFPGKKLEWMGYIRYDGSNNYNPSLKNRISITRDTSKNQFFLKLNSVTTDDTATYYCARVHHYYGSSYFDYWGQGTTLTVSS
VL: DIVMTQSQKFMSTSVGDRVSATCKASQNVGSSVAWFQQKPGQSPKALIYSTSYRYSGVPDRFTGSGSGTDFTLTISNVQSEDLAEYFCQQYNSYPLTFGAGTKLEIK
notes: Tested as IgG; also called A2AR variant A2A-9
The term EC50 (read off the curve) denotes the concentration at which the effect is half-maximal. For B1, in the assay with adenosine A2A receptor [1], the “EC50 (read off the curve)” value is about 4 nM.

B2: A2A - 77 (antibody, V domains shown)
VH: QVQLQESGPGLVKPSGTLSLTCAVSGGSISSSNWWSWVRQPPGKGLEWIGEIYHSGNTNYNPSLKSRVTMSVDKSKNQFSLNLHSVTAADTAVYYCAREVVSGMIGTIFDYWGQGTLVTVSS
VL: ELVMTQSPSSLSASVGDRVTITCRASQRISSYLNWYQQKPGKAPKLLIYAASSLQSRVPSRFSGSGSGTDFTLTISSLQPEDFATYYCQQSYSTPLTFGGGTKLETK
notes: tested as IgG
As for B2, in the assay with adenosine A2A receptor [2], the “EC50 (read off the curve)” value is about 6 nM.

B3: A2A - 81 (antibody, V domains shown)
VH: B2 VH with N57S, M70I, N82K, H84G, M104L, I105Y
VL: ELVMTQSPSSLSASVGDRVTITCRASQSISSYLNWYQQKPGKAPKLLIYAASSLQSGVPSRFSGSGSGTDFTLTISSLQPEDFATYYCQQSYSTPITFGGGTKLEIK
notes: tested as IgG
Regarding B3, the binding result in the assay with adenosine A2A receptor [3] is on record as “binds”.

B4: A2A - 53 (antibody, V domains shown)
VH: EVQLVESGGGLVKPGGSLRLSCAASGFNIIDDYMHWVRQAPGKGLEWVGMITDTGEPTDADSVKGRFTISRDNSKNTLYLQMNSLRAEDTAVYYCVYDYIYAMDYWGQGTLVTVSS
VL: DIQMTQSPSSLSASVGDRVTITCKASQNMGSNVAWYQQKPGKAPKLLIYSASHRSSGVPSRFSGSGSGTDFTLTISSLQPEDFATYYCQQWNYPRITFGQGTKLEIK
For the molecule B4, the “IC50 (read off the curve), A2A antagonistic cAMP assay, RFU ratio 665/615 nm, 0.5 uM NECA” value with adenosine A2A receptor [4] was about 3 nM.

B5: A2A-18 (antibody, V domains shown)
VH: EVQLVESGGGLVKPGGSLRLSCAASGFSFSGYAMSWVRQAPGKGLEWVSVISGSGGSTNYADSVKGRFTISRDNSKNTLYLQMNSLRAEDTAVYYCAAARGYPRWRLGRRYDYWGQGTLVTVSS
VL: DIQMTQSPSSLSASVGDRVTITCRASQSVTTYLNWYQQKPGKAPKLLIYSASSLQSGVPSRFSGSGSGTDFTLTISSLQPEDFATYYCQQTYATPWTFGGGTKVEIK
notes: tested as IgG
For the molecule B5, the binding result with adenosine A2A receptor [5] is recorded as “binds”.

(Values after patent US20210179724A1 (TWIST BIOSCIENCE, published 2021).)
